Laboratory results as given in US20240067758A1 (UCB, published 2024).

T1: Human IL22 (human, UniProt Q9GZX6 34-179)
T1 construct: IL22 of the Biacore and cell assays
T1 sequence: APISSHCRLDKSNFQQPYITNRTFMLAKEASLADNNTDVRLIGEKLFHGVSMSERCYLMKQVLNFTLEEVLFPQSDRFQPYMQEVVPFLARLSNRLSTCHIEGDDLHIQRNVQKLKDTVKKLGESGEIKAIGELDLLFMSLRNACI


molecular target: T1, Human IL22; test: SPR (Biacore); Fab variant, human IL22

Binder | Kd
11041gL1 C91S gH1 D54E (Fab, V domains shown, V-regions only; also called 11041gL2gH3) VH: EVQLVESGGGLVQPGGSLRLSCAVSGFSLSSYAMIWVRQAPGKGLEWIGIIDIEGSTYYASWAKGRFTISRDSSKNTVYLQMNSLRAEDTAVYYCARDRFVGVDIFDPWGQGTLVTVSS VL: AVVLTQSPSSLSASVGDRVTITCQASEDIYTNLAWYQQKPGKAPKLLIYWASTLASGVPSRFSGSGSGTDFTLTISSLQPEDFATYYCQASVYGNSADSRYTFGGGTKVEIK | 0.0281 nM
11041gL1gH1 D107E (Fab, V domains shown, V-regions only; also called 11041gL1gH4) VH: EVQLVESGGGLVQPGGSLRLSCAVSGFSLSSYAMIWVRQAPGKGLEWIGIIDIDGSTYYASWAKGRFTISRDSSKNTVYLQMNSLRAEDTAVYYCARDRFVGVDIFEPWGQGTLVTVSS VL: AVVLTQSPSSLSASVGDRVTITCQASEDIYTNLAWYQQKPGKAPKLLIYWASTLASGVPSRFSGSGSGTDFTLTISSLQPEDFATYYCQACVYGNSADSRYTFGGGTKVEIK | 0.657 nM
11041gL6 C91S gH8 D54E (Fab, V domains shown, V-regions only; also called 11041gL11gH15) VH: EVQLVESGGGLVQPGGSLRLSCAVSGFSLSSYAMIWVRQAPGKGLEWIGIIDIEGSTYYASWAKGRFTISRDSSKNTLYLQMNSLRAEDTAVYYCARDRFVGVDIFDPWGQGTLVTVSS VL: AVQLTQSPSSLSASVGDRVTITCQASEDIYTNLAWYQQKPGKAPKLLIYWASTLASGVPSRFSGSGSGTDFTLTISSLQPEDFATYYCQASVYGNSADSRYTFGGGTKVEIK | 0.106 nM
11041gL1 S96A gH1 (Fab, V domains shown, V-regions only; also called 11041gL9gH1) VH: EVQLVESGGGLVQPGGSLRLSCAVSGFSLSSYAMIWVRQAPGKGLEWIGIIDIDGSTYYASWAKGRFTISRDSSKNTVYLQMNSLRAEDTAVYYCARDRFVGVDIFDPWGQGTLVTVSS VL: AVVLTQSPSSLSASVGDRVTITCQASEDIYTNLAWYQQKPGKAPKLLIYWASTLASGVPSRFSGSGSGTDFTLTISSLQPEDFATYYCQACVYGNAADSRYTFGGGTKVEIK | 0.2 nM
11041gL1gH5 (Fab, V domains shown, V-regions only) VH: EVQLVESGGGLVQPGGSLRLSCAVSGFSLSSYAMIWVRQAPGKGLEWIGIIDIDGSTYYASWAKGRFTISRDNSKNTVYLQMNSLRAEDTAVYYCARDRFVGVDIFDPWGQGTLVTVSS VL: AVVLTQSPSSLSASVGDRVTITCQASEDIYTNLAWYQQKPGKAPKLLIYWASTLASGVPSRFSGSGSGTDFTLTISSLQPEDFATYYCQACVYGNSADSRYTFGGGTKVEIK | 0.378 nM
11041gL1gH8 (Fab, V domains shown, V-regions only) VH: EVQLVESGGGLVQPGGSLRLSCAVSGFSLSSYAMIWVRQAPGKGLEWIGIIDIDGSTYYASWAKGRFTISRDSSKNTLYLQMNSLRAEDTAVYYCARDRFVGVDIFDPWGQGTLVTVSS VL: AVVLTQSPSSLSASVGDRVTITCQASEDIYTNLAWYQQKPGKAPKLLIYWASTLASGVPSRFSGSGSGTDFTLTISSLQPEDFATYYCQACVYGNSADSRYTFGGGTKVEIK | 0.274 nM
11041gL7 C91S S96A gH8 D54E (Fab, V domains shown, V-regions only; also called 11041gL14gH15) VH: EVQLVESGGGLVQPGGSLRLSCAVSGFSLSSYAMIWVRQAPGKGLEWIGIIDIEGSTYYASWAKGRFTISRDSSKNTLYLQMNSLRAEDTAVYYCARDRFVGVDIFDPWGQGTLVTVSS VL: AIQLTQSPSSLSASVGDRVTITCQASEDIYTNLAWYQQKPGKAPKLLIYWASTLASGVPSRFSGSGSGTDFTLTISSLQPEDFATYYCQASVYGNAADSRYTFGGGTKVEIK | 0.104 nM
11041gL6gH1 (Fab, V domains shown, V-regions only) VH: EVQLVESGGGLVQPGGSLRLSCAVSGFSLSSYAMIWVRQAPGKGLEWIGIIDIDGSTYYASWAKGRFTISRDSSKNTVYLQMNSLRAEDTAVYYCARDRFVGVDIFDPWGQGTLVTVSS VL: AVQLTQSPSSLSASVGDRVTITCQASEDIYTNLAWYQQKPGKAPKLLIYWASTLASGVPSRFSGSGSGTDFTLTISSLQPEDFATYYCQACVYGNSADSRYTFGGGTKVEIK | 0.369 nM
11041gL1gH1 D54E (Fab, V domains shown, V-regions only; also called 11041gL1gH3) VH: EVQLVESGGGLVQPGGSLRLSCAVSGFSLSSYAMIWVRQAPGKGLEWIGIIDIEGSTYYASWAKGRFTISRDSSKNTVYLQMNSLRAEDTAVYYCARDRFVGVDIFDPWGQGTLVTVSS VL: AVVLTQSPSSLSASVGDRVTITCQASEDIYTNLAWYQQKPGKAPKLLIYWASTLASGVPSRFSGSGSGTDFTLTISSLQPEDFATYYCQACVYGNSADSRYTFGGGTKVEIK | 0.166 nM
11041gL1gH1 (Fab, V domains shown, Human Fab format (human kappa, human gamma-1 CH1); V-regions only) VH: EVQLVESGGGLVQPGGSLRLSCAVSGFSLSSYAMIWVRQAPGKGLEWIGIIDIDGSTYYASWAKGRFTISRDSSKNTVYLQMNSLRAEDTAVYYCARDRFVGVDIFDPWGQGTLVTVSS VL: AVVLTQSPSSLSASVGDRVTITCQASEDIYTNLAWYQQKPGKAPKLLIYWASTLASGVPSRFSGSGSGTDFTLTISSLQPEDFATYYCQACVYGNSADSRYTFGGGTKVEIK | 0.642 nM
11041gL1 N95D gH1 (Fab, V domains shown, V-regions only; also called 11041gL8gH1) VH: EVQLVESGGGLVQPGGSLRLSCAVSGFSLSSYAMIWVRQAPGKGLEWIGIIDIDGSTYYASWAKGRFTISRDSSKNTVYLQMNSLRAEDTAVYYCARDRFVGVDIFDPWGQGTLVTVSS VL: AVVLTQSPSSLSASVGDRVTITCQASEDIYTNLAWYQQKPGKAPKLLIYWASTLASGVPSRFSGSGSGTDFTLTISSLQPEDFATYYCQACVYGDSADSRYTFGGGTKVEIK | 0.129 nM
11041gL1gH1 G55A (Fab, V domains shown, V-regions only; also called 11041gL1gH2) VH: EVQLVESGGGLVQPGGSLRLSCAVSGFSLSSYAMIWVRQAPGKGLEWIGIIDIDASTYYASWAKGRFTISRDSSKNTVYLQMNSLRAEDTAVYYCARDRFVGVDIFDPWGQGTLVTVSS VL: AVVLTQSPSSLSASVGDRVTITCQASEDIYTNLAWYQQKPGKAPKLLIYWASTLASGVPSRFSGSGSGTDFTLTISSLQPEDFATYYCQACVYGNSADSRYTFGGGTKVEIK | 0.627 nM

The next lines start with the values.

Kd | Binder
0.079 nM | 11041gL1 C91S S96AgH15 (Fab, V domains shown, V-regions only; also called 11041gL10gH15; gH15 = gH8 D54E) VH: EVQLVESGGGLVQPGGSLRLSCAVSGFSLSSYAMIWVRQAPGKGLEWIGIIDIEGSTYYASWAKGRFTISRDSSKNTLYLQMNSLRAEDTAVYYCARDRFVGVDIFDPWGQGTLVTVSS VL: AVVLTQSPSSLSASVGDRVTITCQASEDIYTNLAWYQQKPGKAPKLLIYWASTLASGVPSRFSGSGSGTDFTLTISSLQPEDFATYYCQASVYGNAADSRYTFGGGTKVEIK
0.0398 nM | 11041gL1 C91S S96AgH17 (Fab, V domains shown, V-regions only; also called 11041gL10gH17; gH17 = gH11 D54E) VH: EVQLVESGGGLVQPGGSLRLSCAVSGFSLSSYAMIWVRQAPGKGLEWVGIIDIEGSTYYASWAKGRFTISRDNSKNTLYLQMNSLRAEDTAVYYCARDRFVGVDIFDPWGQGTLVTVSS VL: AVVLTQSPSSLSASVGDRVTITCQASEDIYTNLAWYQQKPGKAPKLLIYWASTLASGVPSRFSGSGSGTDFTLTISSLQPEDFATYYCQASVYGNAADSRYTFGGGTKVEIK
0.0114 nM | 11041gL1 C91S gH9 (Fab, V domains shown, V-regions only; also called 11041gL2gH9) VH: EVQLVESGGGLVQPGGSLRLSCAASGFSLSSYAMIWVRQAPGKGLEWIGIIDIDGSTYYASWAKGRFTISRDSSKNTVYLQMNSLRAEDTAVYYCARDRFVGVDIFDPWGQGTLVTVSS VL: AVVLTQSPSSLSASVGDRVTITCQASEDIYTNLAWYQQKPGKAPKLLIYWASTLASGVPSRFSGSGSGTDFTLTISSLQPEDFATYYCQASVYGNSADSRYTFGGGTKVEIK
0.0454 nM | 11041gL1 C91S S96AgH18 (Fab, V domains shown, V-regions only; also called 11041gL10gH18; gH18 = gH12 D54E) VH: EVQLVESGGGLVQPGGSLRLSCAVSGFSLSSYAMIWVRQAPGKGLEWISIIDIEGSTYYASWAKGRFTISRDNSKNTLYLQMNSLRAEDTAVYYCARDRFVGVDIFDPWGQGTLVTVSS VL: AVVLTQSPSSLSASVGDRVTITCQASEDIYTNLAWYQQKPGKAPKLLIYWASTLASGVPSRFSGSGSGTDFTLTISSLQPEDFATYYCQASVYGNAADSRYTFGGGTKVEIK
0.0516 nM | 11041gL6 C91S gH11 D54E (Fab, V domains shown, V-regions only; also called 11041gL11gH17) VH: EVQLVESGGGLVQPGGSLRLSCAVSGFSLSSYAMIWVRQAPGKGLEWVGIIDIEGSTYYASWAKGRFTISRDNSKNTLYLQMNSLRAEDTAVYYCARDRFVGVDIFDPWGQGTLVTVSS VL: AVQLTQSPSSLSASVGDRVTITCQASEDIYTNLAWYQQKPGKAPKLLIYWASTLASGVPSRFSGSGSGTDFTLTISSLQPEDFATYYCQASVYGNSADSRYTFGGGTKVEIK
0.0888 nM | 11041gL1 S96A gH1 D54E (Fab, V domains shown, V-regions only; also called 11041gL9gH3) VH: EVQLVESGGGLVQPGGSLRLSCAVSGFSLSSYAMIWVRQAPGKGLEWIGIIDIEGSTYYASWAKGRFTISRDSSKNTVYLQMNSLRAEDTAVYYCARDRFVGVDIFDPWGQGTLVTVSS VL: AVVLTQSPSSLSASVGDRVTITCQASEDIYTNLAWYQQKPGKAPKLLIYWASTLASGVPSRFSGSGSGTDFTLTISSLQPEDFATYYCQACVYGNAADSRYTFGGGTKVEIK
0.0617 nM | 11041gL7 C91S S96A gH11 D54E (Fab, V domains shown, V-regions only; also called 11041gL14gH17) VH: EVQLVESGGGLVQPGGSLRLSCAVSGFSLSSYAMIWVRQAPGKGLEWVGIIDIEGSTYYASWAKGRFTISRDNSKNTLYLQMNSLRAEDTAVYYCARDRFVGVDIFDPWGQGTLVTVSS VL: AIQLTQSPSSLSASVGDRVTITCQASEDIYTNLAWYQQKPGKAPKLLIYWASTLASGVPSRFSGSGSGTDFTLTISSLQPEDFATYYCQASVYGNAADSRYTFGGGTKVEIK
0.0676 nM | 11041gL7 C91S S96A gH12 D54E (Fab, V domains shown, V-regions only; also called 11041gL14gH18) VH: EVQLVESGGGLVQPGGSLRLSCAVSGFSLSSYAMIWVRQAPGKGLEWISIIDIEGSTYYASWAKGRFTISRDNSKNTLYLQMNSLRAEDTAVYYCARDRFVGVDIFDPWGQGTLVTVSS VL: AIQLTQSPSSLSASVGDRVTITCQASEDIYTNLAWYQQKPGKAPKLLIYWASTLASGVPSRFSGSGSGTDFTLTISSLQPEDFATYYCQASVYGNAADSRYTFGGGTKVEIK
0.0444 nM | 11041gL6 C91S gH12 D54E (Fab, V domains shown, V-regions only; also called 11041gL11gH18) VH: EVQLVESGGGLVQPGGSLRLSCAVSGFSLSSYAMIWVRQAPGKGLEWISIIDIEGSTYYASWAKGRFTISRDNSKNTLYLQMNSLRAEDTAVYYCARDRFVGVDIFDPWGQGTLVTVSS VL: AVQLTQSPSSLSASVGDRVTITCQASEDIYTNLAWYQQKPGKAPKLLIYWASTLASGVPSRFSGSGSGTDFTLTISSLQPEDFATYYCQASVYGNSADSRYTFGGGTKVEIK
